First the molecules themselves.
T1: HA-GCN4 hAPRIL (amino acid residues 105-250) (human, UniProt O75888 105-250)
T1 construct: Bought (R&D Systems); also called HA-tagged GCN4 human APRIL; HA-GCN4-huAPRIL; not shown: N-terminal HA tag; GCN4 isoleucine zipper oligomerization domain
T1 sequence: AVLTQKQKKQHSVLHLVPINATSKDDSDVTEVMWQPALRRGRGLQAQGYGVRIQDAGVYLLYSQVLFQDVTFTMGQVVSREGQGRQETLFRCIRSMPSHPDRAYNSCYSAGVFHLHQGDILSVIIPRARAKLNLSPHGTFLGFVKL

T2: human Tweak (TNFSF12; Abcam) (human, UniProt O43508 94-249, limits assumed)
T2 sequence (looked up): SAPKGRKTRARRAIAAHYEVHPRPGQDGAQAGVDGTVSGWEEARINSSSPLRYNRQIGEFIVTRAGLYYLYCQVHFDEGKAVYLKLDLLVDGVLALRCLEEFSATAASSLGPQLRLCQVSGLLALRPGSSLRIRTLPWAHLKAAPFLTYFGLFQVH

T3: human FasL (TNFSF6, Adipogen) (human, UniProt P48023 103-281, limits assumed)
T3 sequence (looked up): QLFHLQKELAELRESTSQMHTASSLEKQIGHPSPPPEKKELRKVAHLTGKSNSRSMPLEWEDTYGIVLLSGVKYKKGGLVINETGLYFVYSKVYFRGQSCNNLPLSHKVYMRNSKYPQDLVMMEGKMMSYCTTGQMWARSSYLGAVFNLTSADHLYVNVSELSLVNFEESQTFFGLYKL

T4: human RANKL (TNFSF11; Adipogen) (human, UniProt O14788 152-317, limits assumed)
T4 sequence (looked up): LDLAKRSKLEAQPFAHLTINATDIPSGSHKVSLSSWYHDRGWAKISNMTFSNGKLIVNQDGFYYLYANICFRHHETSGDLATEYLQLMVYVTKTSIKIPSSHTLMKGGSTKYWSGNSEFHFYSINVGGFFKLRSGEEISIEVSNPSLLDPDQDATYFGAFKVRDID

B1: monoclonal antibody 3631 (antibody, V domains shown)
VH: EIQLQQSGPELVKPGASVKVSCKASGYSFTDYNIYWVKQSHGKSLEWIGYIDPSNGGPGYNQKFRGKATLTVDKSSSTAFLHLNSLTSEDSAVYYCARRDNYGSGTMDYWGQGTSVTVSS
VL: DIVMTQSQKFMSTSVGDRVSITCKASQNVGTDVSWYQQKPGKSPKPLIYWASNRFTGVPDRFIGSGSGTDFTLTISNVQSEDLADYFCEQYSIYPLTFGAGTKLELK
notes: mouse-derived
B2: monoclonal antibody 4540 (antibody, V domains shown)
VH: QVQLQQSGPELVKPGASVKISCKASGYTFADYYINWVKQRPGQGLEWIGWIFPGSGSTYYNEKFKGKATLTVDKSSSTAYMLLSSLTSEDSAVYFCARGDSGRAMDYWGQGTSVTVSS
VL: DIQMTQSPSSLSASLGGKVTITCKASQDINKYIAWYQHKPGKGPRLLIHYTSTLQSGIPSRFSGSGSGRDYSFSISNLEPEDNATYYCLQYDNLLTFGAGTKLELK
notes: mouse-derived
B3: monoclonal antibody 3833 (antibody, V domains shown)
VH: QVQLQQSGAELVRPGTSVKMSCKAAGYTFTNYWIGWVKQRPGHGLEWIGDIYPGGIGGGYTKYNEKFKGKATLTADTSSSTAYMQLGSLTSEDSAIYFCSRSETGRAMDYWGQGTSVTVSS
VL: B2 VL with Q55K, S56P, N77D, N83I, L95N, A99G, L105I
notes: mouse-derived
B4: monoclonal antibody 3732 (antibody, V domains shown)
VH: B1 VH with Y32D, I34M, S54L, P58T, R65K, G103A, S104T
VL: B1 VL with Q27K, I63T, S76N, I93S
notes: mouse-derived

This note sets out measurements from patent publication US20170145086A1 (VISTERRA, published 2017).

Changes are numbered by the printed parent chain.

Sequence of human TRAIL (TNFSF10, Adipogen) (P50591 95-281 limits assumed): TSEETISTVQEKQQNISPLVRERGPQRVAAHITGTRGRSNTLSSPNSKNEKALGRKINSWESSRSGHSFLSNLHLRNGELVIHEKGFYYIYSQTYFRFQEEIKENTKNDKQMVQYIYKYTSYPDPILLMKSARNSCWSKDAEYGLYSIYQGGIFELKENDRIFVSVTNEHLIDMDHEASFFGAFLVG
Sequence of human TNFα (TNFSF2; Adipogen) (P01375 85-233 limits assumed): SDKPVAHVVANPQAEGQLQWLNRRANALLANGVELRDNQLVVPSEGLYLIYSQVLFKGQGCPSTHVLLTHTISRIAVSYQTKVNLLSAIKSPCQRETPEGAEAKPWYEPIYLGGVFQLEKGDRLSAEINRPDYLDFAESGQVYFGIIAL
Sequence of human BAFF (TNFSF13B, AB Biosciences) (Q9Y275 134-285 limits assumed): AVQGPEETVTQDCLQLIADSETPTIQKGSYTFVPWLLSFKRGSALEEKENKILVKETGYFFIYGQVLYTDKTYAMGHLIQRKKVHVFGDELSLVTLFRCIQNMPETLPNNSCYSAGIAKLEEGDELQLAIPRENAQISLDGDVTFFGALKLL
Sequence of mouse BAFF (TNFSF13B, Adipogen) (Q9WU72 127-309 limits assumed): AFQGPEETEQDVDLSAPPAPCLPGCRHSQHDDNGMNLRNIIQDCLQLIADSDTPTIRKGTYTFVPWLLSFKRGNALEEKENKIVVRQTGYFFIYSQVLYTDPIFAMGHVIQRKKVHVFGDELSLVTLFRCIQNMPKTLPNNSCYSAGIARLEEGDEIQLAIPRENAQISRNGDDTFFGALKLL
Sequence of human LIGHT (TNFSF14, Adipogen) (O43557 89-240 limits assumed): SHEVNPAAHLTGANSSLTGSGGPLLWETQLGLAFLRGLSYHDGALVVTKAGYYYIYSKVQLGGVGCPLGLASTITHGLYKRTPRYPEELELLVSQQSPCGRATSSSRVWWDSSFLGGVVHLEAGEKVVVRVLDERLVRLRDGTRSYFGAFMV

The target in the first test is T1, HA-GCN4 hAPRIL (amino acid residues …). Put plainly: blocking ELISA, 4-parameter fit; blocked: human APRIL binding to human TACI-Fc. As for the experimental part:
FIGS. 19A-19B depict the antibody inhibition of APRIL binding to TNFSF receptors TACI (FIG. 19A) and BCMA (FIG. 19B). Assay is based on blocking ELISA using recombinant human APRIL (R&D Systems) and Human TACI-Fc. Inhibition was analyzed by non-linear regression using a four parameter fit.
Recombinant TACI-Fc or BCMA-Fc was coated on 96 well plates in 0.1 M carbonate-bicarbonate buffer (pH 9.6), overnight at 4° C. Plates were washed three times with 1×PBST (PBS+0.025% Tween 20) followed by blocking with 1% BSA in 1×PBS, 37° C. for 1 hour. All subsequent wash steps were carried out with 1×PBST. To assess antibody blocking, either 15 ng/mL or 50 ng/mL HA-GCN4-huAPRIL was preincubated with varying antibody concentrations ranging from 0.03-30 μg/mL in binding buffer comprised of 1% BSA and 0.025% Tween-20 in 1×PBS. Preincubation was carried out at 30° C. for 1 hour with mixing. Antibody-APRIL premix with 50 ng/mL APRIL or 15 ng/mL APRIL was then added to TACI-Fc coated or BCMA-Fc coated plates, respectively, and incubated for an additional hour at 30° C. HA-tagged APRIL binding to either receptor was quantified using a goat polyclonal anti-HA tag-HRP antibody (Abcam) added at a 1:10000 dilution followed by colorimetric development using 100 μl/well of freshly prepared TMB substrate (KPL) carried out for up to 30 minutes at room temperature before quenching enzymatic reaction by the addition of 1N sulfuric acid. ELISA signal was quantified by absorbance at 450 nm. ELISA data was analyzed by non-linear regression. IC₅₀ values were calculated based on a 4 parameter fit of antibody titration curves. […] Non-blocking antibodies Aprly-1 or Aprly-5 (Enzo Biosciences) were used as negative controls. Mouse specific, blocking antibody aprily-1-1 (Adipogen) was generally used as a positive control in experiments using mouse APRIL (HA-GCN4-mAPRIL).
(In an ELISA, binding on a coated surface is turned into a signal by an enzyme label.)
By IC50 is commonly meant the concentration that gives 50% inhibition. Read a low IC50 as greater potency. Molecule B1 gave an IC50 of 0.27 nM.
Same read-out and setting: the result for B2 reads 1.01 nM.
Molecule B3 displayed an IC50 of 2.25 nM.

For the next test, the target named is human LIGHT (TNFSF14, Adipogen) (human, UniProt O43557 89-240, limits assumed). Put plainly: indirect ELISA, cytokine coated. As for the experimental part:
(§1) Selected anti-APRIL antibodies were evaluated for potential cross-reactivity with other members of the TNFa superfamily (TNFSF) family of cytokines, including: human TNFα (TNFSF2; Adipogen), human […] (TNFSF4, Adipogen), human FasL (TNFSF6, Adipogen), human TRAIL (TNFSF10, Adipogen), human RANKL (TNFSF11; Adipogen), human Tweak (TNFSF12; Abcam), human and mouse BAFF (TNFSF13B, AB Biosciences and Adipogen, respectively), and human LIGHT (TNFSF14, Adipogen). These cytokines share variable degree of sequence as well as higher order structural homologies. Among them, BAFF appears to be the most closely related to APRIL, with 29% identity and 53% amino acid sequence similarity.
(§2) Binding was evaluated by an indirect ELISA protocol using similar methods described for evaluation of APRIL binding; cytokines were immobilized to ELISA plate at 50 ng per well and then exposed to a solution of each of the test antibodies at a fixed concentration of 10 μg/ml Anti-human or anti-mouse Ig-HRP polyclonal antibody conjugates (Jackson Laboratories) were used for detection of antibody binding. The results presented in FIG. 36 indicated eleven of the twelve antibodies tested in this assay to specifically bind APRIL with no measurable cross-reactivity with the other TNFSF members substantially above assay background.
In the case of B1, the binding result was “no binding (tested: 10 µg/ml (p-1128))”.
Same read-out and setting: to B4 belongs “no binding (tested: 10 µg/ml (p-1128))”; to B2, “no binding (tested: 10 µg/ml (p-1128))”.
Consider B3, for which the binding result was “no binding (tested: 10 µg/ml (p-1128))”.

The next test addresses human BAFF (TNFSF13B, AB Biosciences) (human, UniProt Q9Y275 134-285, limits assumed). Kind of test: indirect ELISA, cytokine coated. On the procedure: as §1, §2
As for B4, the binding result was “no binding (tested: 10 µg/ml (p-1128))”.
Still for that read-out and setting: the result for B2 reads “no binding (tested: 10 µg/ml (p-1128))”.
For the molecule B3, the binding result is on record as “no binding (tested: 10 µg/ml (p-1128))”.

Another test addresses T2, human Tweak (TNFSF12; Abcam). Kind of test: indirect ELISA, cytokine coated. As for the experimental part:
as §1, §2
For B1, the binding result was “no binding (tested: 10 µg/ml (p-1128))”.
Same read-out and setting: the result for B4 reads “no binding (tested: 10 µg/ml (p-1128))”; that for B2, “no binding (tested: 10 µg/ml (p-1128))”.
Same read-out and setting: the result for B3 reads “no binding (tested: 10 µg/ml (p-1128))”.

The target of a further test is T3, human FasL (TNFSF6, Adipogen). Put plainly: indirect ELISA, cytokine coated. On the procedure: as §1, §2
As to B1, the binding result is recorded as “no binding (tested: 10 µg/ml (p-1128))”.
The same measure, in the same setting: to B4 belongs “no binding (tested: 10 µg/ml (p-1128))”; to B2, “no binding (tested: 10 µg/ml (p-1128))”.

The next test deals with human TRAIL (TNFSF10, Adipogen) (human, UniProt P50591 95-281, limits assumed). Kind of test: indirect ELISA, cytokine coated. As for the experimental part:
as §1, §2
With B1, the binding result is listed as “no binding (tested: 10 µg/ml (p-1128))”.
Same read-out and setting: the result for B4 reads “no binding (tested: 10 µg/ml (p-1128))”.
The same measure, in the same setting: the result for B2 reads “no binding (tested: 10 µg/ml (p-1128))”; that for B3, “no binding (tested: 10 µg/ml (p-1128))”.

Another test addresses mouse BAFF (TNFSF13B, Adipogen) (mouse, UniProt Q9WU72 127-309, limits assumed). Kind of test: indirect ELISA, cytokine coated. As for the experimental part: as §1, §2
B4: the binding result is “no binding (tested: 10 µg/ml (p-1128))”.
For the molecule B2, the binding result is “no binding (tested: 10 µg/ml (p-1128))”.
The same measure, in the same setting: the result for B3 reads “no binding (tested: 10 µg/ml (p-1128))”.

The next test concerns the target T4, human RANKL (TNFSF11; Adipogen). Kind of test: indirect ELISA, cytokine coated. As for the experimental part:
as §1, §2
As for B1, the binding result is “no binding (tested: 10 µg/ml (p-1128))”.
On to B4, for which the binding result was “no binding (tested: 10 µg/ml (p-1128))”.
For B2, the binding result was “no binding (tested: 10 µg/ml (p-1128))”.
Still for that read-out and setting: to B3 belongs “no binding (tested: 10 µg/ml (p-1128))”.

Another test addresses human TNFα (TNFSF2; Adipogen) (human, UniProt P01375 85-233, limits assumed). Kind of test: indirect ELISA, cytokine coated. On the procedure: as §1, §2
In the case of B1, the binding result is “no binding (tested: 10 µg/ml (p-1128))”.
Same read-out and setting: to B4 belongs “no binding (tested: 10 µg/ml (p-1128))”; to B2, “no binding (tested: 10 µg/ml (p-1128))”; to B3, “no binding (tested: 10 µg/ml (p-1128))”.
